Measured values taken from publication PMC3219716, “Indirect DNA Readout by an H-NS Related Protein: Structure of the DNA Complex of the C-Terminal Domain of Ler”.

T1: CT-H-NS (UniProt P0ACF8 95-137)
T1 chain: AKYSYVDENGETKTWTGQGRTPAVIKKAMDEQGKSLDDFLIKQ

T2: CT-Ler (Escherichia coli EHEC O157:H7, UniProt Q7DB51 70-116)
T2 chain: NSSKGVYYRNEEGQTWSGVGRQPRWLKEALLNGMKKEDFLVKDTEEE

T3: CT-Ler R90Q (Escherichia coli EHEC O157:H7, UniProt Q7DB51 70-116, R90Q)
T3 chain: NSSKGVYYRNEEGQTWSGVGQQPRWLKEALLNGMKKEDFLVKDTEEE

T4: CT-Ler R90G (Escherichia coli EHEC O157:H7, UniProt Q7DB51 70-116, R90G)
T4 chain: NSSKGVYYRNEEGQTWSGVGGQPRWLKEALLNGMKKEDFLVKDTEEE

B1: AATT 10-mer (dsDNA)
DNA 1: CGCAATTGCG
DNA 2: CGCAATTGCG
B2: TATA 10-mer (dsDNA)
DNA 1: CGCTATAGCG
DNA 2: CGCTATAGCG
B3: LeeFG (dsDNA)
DNA 1: AAATAATTGATAATA
DNA 2: TATTATCAATTATTT
B4: LeeG (dsDNA)
DNA 1: AAATAATTGATAATAATGTTTTTGTTACGT
DNA 2: ACGTAACAAAAACATTATTATCAATTATTT
B5: LeeF (dsDNA)
DNA 1: TTTCTTTTTTTATTGAAATAATTGATAATA
DNA 2: TATTATCAATTATTTCAATAAAAAAAGAAA
B6: LeeH A13G (dsDNA)
DNA 1: GCGATAATTGATGCC
DNA 2: GGCATCAATTATCGC
B7: LeeH (WT) (dsDNA)
DNA 1: GCGATAATTGATACC
DNA 2: GGTATCAATTATCGC
B8: LeeH T12C (dsDNA)
DNA 1: GCGATAATTGACACC
DNA 2: GGTGTCAATTATCGC
B9: LeeH A4G (dsDNA)
DNA 1: GCGGTAATTGATACC
DNA 2: GGTATCAATTACCGC
B10: LeeH T8C (dsDNA)
DNA 1: GCGATAACTGATACC
DNA 2: GGTATCAGTTATCGC
B11: LeeH A7G (dsDNA)
DNA 1: GCGATAGTTGATACC
DNA 2: GGTATCAACTATCGC
B12: AAAT 10-mer (dsDNA)
DNA 1: CGCAAATGCG
DNA 2: CGCATTTGCG
B13: LeeH A11G (dsDNA)
DNA 1: GCGATAATTGGTACC
DNA 2: GGTACCAATTATCGC
B14: LeeH T5C (dsDNA)
DNA 1: GCGACAATTGATACC
DNA 2: GGTATCAATTGTCGC
B15: LeeH T9C (dsDNA)
DNA 1: GCGATAATCGATACC
DNA 2: GGTATCGATTATCGC
B16: AATA 10-mer (dsDNA)
DNA 1: CGCAATAGCG
DNA 2: CGCTATTGCG
B17: LeeH A6G (dsDNA)
DNA 1: GCGATGATTGATACC
DNA 2: GGTATCAATCATCGC
B18: LeeH G10A (dsDNA)
DNA 1: GCGATAATTAATACC
DNA 2: GGTATTAATTATCGC
B19: AAAA 10-mer (dsDNA)
DNA 1: CGCAAAAGCG
DNA 2: CGCTTTTGCG
B20: TTAA 10-mer (dsDNA)
DNA 1: CGCTTAAGCG
DNA 2: CGCTTAAGCG
B21: AATTC 10-mer (dsDNA)
DNA 1: CGGAATTCCG
DNA 2: CGGAATTCCG

Target: T1, CT-H-NS
Assay: NMR titration (1H-15N HSQC); Anisotropy: 40 mM HEPES pH 7.5, 60 mM K-glutamate, 0.01% NaN3, 20 C; EMSA: 15 mM Na-phosphate pH 7.5, 100 mM NaCl, 0.01% NaN3, room temperature; NMR structure:
Details: protein: recombinant; tags: N-terminal His6 (pHAT2); blunt, self-complementary

Binder	Kd [nM]
B1	~41000
B2	~102000

Target: T2, CT-Ler
Assay: fluorescence anisotropy; deviates from 1:1 model, multiple binding suggested; Anisotropy: 40 mM HEPES pH 7.5, 60 mM K-glutamate, 0.01% NaN3, 20 C; EMSA: 15 mM Na-phosphate pH 7.5, 100 mM NaCl, 0.01% NaN3, room temperature; NMR structure:
Details: protein: recombinant; tags: N-terminal His6 (pHAT2); blunt

Binder	binding result
B3	binds

Target: T2, CT-Ler
Assay: fluorescence anisotropy; among highest affinities; Anisotropy: 40 mM HEPES pH 7.5, 60 mM K-glutamate, 0.01% NaN3, 20 C; EMSA: 15 mM Na-phosphate pH 7.5, 100 mM NaCl, 0.01% NaN3, room temperature; NMR structure:
Details: protein: recombinant; tags: N-terminal His6 (pHAT2); blunt

Binder	binding result
B4	binds
B5	binds

Target: T2, CT-Ler
Assay: fluorescence anisotropy; Anisotropy: 40 mM HEPES pH 7.5, 60 mM K-glutamate, 0.01% NaN3, 20 C; EMSA: 15 mM Na-phosphate pH 7.5, 100 mM NaCl, 0.01% NaN3, room temperature; NMR structure:
Details: protein: recombinant; tags: N-terminal His6 (pHAT2); blunt

Binder	Kd [nM]
B6	1480 ± 90
B7	1100 ± 50
B8	1450 ± 100
B9	1060 ± 80
B10	1700 ± 130
B11	2710 ± 320
B12	6170 ± 360
B13	1430 ± 40
B14	1380 ± 110
B15	1360 ± 80
B16	11500 ± 960
B17	2480 ± 200
B18	2310 ± 70
B19	8070 ± 220

Same assay, conditions: protein: recombinant; tags: N-terminal His6 (pHAT2); blunt, self-complementary

Binder	Kd [nM]
B20	22800 ± 2990
B1	3450 ± 560
B2	16600 ± 2200
B21	4140 ± 310

Target: T3, CT-Ler R90Q
Assay: as above
Details: protein: recombinant; tags: N-terminal His6 (pHAT2); blunt

Binder	binding result
B7	no binding

Target: T4, CT-Ler R90G
Assay: as above
Details: protein: recombinant; tags: N-terminal His6 (pHAT2); blunt

Binder	binding result
B7	no binding
